In US7211395 (dated 2007):

Key:
rat serum albumin = target: T1, rat serum albumin (rat, UniProt P02770); assay: FP, PBS pH 7.4
T1 chain: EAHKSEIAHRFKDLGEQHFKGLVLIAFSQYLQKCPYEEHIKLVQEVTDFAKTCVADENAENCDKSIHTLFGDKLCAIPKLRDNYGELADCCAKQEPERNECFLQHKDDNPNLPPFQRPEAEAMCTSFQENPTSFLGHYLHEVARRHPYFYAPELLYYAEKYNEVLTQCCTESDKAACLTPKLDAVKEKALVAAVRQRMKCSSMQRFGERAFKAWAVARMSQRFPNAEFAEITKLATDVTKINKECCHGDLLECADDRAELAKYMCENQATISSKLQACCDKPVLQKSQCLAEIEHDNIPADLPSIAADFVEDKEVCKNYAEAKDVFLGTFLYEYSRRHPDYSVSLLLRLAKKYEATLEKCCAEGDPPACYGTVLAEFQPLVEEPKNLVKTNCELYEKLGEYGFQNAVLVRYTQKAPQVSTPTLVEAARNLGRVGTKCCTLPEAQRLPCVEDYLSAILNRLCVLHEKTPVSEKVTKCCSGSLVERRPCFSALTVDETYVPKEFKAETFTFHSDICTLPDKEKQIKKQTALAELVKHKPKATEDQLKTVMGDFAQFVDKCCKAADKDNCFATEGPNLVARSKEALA

bovine serum albumin [1] = target: T2, bovine serum albumin (bovine, UniProt P02769); assay: FP, PBS pH 7.4
rhesus serum albumin = target: T3, rhesus serum albumin (rhesus macaque, UniProt Q28522); assay: FP, PBS pH 7.4
T3 chain: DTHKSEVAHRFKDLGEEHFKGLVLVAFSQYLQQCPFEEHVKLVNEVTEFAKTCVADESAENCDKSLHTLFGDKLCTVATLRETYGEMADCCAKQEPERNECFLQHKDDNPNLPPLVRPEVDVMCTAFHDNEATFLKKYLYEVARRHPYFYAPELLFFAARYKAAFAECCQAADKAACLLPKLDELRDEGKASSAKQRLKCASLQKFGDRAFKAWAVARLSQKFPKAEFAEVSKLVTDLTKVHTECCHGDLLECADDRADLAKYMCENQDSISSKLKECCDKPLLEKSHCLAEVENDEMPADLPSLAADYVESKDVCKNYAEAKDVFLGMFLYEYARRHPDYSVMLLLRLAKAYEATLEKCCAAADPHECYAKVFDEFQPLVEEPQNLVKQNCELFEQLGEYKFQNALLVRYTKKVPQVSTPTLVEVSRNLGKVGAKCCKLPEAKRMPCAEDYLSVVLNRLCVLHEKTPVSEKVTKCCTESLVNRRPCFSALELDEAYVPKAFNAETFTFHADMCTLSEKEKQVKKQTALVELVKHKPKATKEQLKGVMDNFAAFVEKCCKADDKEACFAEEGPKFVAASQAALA

[2] = target: T4, human serum albumin (HSA) (human, UniProt P02768); assay: FP, PBS pH 7.4
mouse serum albumin = mouse serum albumin (mouse, UniProt P07724); assay: FP, pH 6.2, no NaCl
bovine serum albumin [3] = target: T2, bovine serum albumin; assay: FP, pH 6.2, no NaCl
pig serum albumin = target: T5, pig serum albumin (pig, UniProt P08835); assay: FP, pH 6.2, no NaCl
T5 chain: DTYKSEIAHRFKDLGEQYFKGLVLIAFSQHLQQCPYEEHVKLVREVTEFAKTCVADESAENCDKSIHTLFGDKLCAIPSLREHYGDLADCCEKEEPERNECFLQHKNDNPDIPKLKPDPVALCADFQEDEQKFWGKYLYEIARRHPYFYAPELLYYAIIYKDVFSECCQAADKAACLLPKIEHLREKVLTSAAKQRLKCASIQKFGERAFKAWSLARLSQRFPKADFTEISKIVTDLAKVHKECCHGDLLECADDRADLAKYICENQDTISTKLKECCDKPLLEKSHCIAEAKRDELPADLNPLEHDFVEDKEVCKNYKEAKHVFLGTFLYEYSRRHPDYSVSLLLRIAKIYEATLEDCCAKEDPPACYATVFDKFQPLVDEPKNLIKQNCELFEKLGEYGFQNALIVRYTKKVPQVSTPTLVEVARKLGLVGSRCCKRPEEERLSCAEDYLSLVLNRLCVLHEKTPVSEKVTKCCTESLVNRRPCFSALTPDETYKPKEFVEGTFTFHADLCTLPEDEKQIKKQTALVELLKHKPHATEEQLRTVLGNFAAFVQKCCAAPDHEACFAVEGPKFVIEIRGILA

[4] = target: T4, human serum albumin (HSA); assay: FP, pH 6.2, no NaCl
[5] = target: T4, human serum albumin (HSA); assay: FP, pH 6.2, no NaCl; remark: listed apart in the source
[6] = target: T4, human serum albumin (HSA); assay: FP, pH 7.4, 0.14 M NaCl

T2 sequence (P02769 25-607): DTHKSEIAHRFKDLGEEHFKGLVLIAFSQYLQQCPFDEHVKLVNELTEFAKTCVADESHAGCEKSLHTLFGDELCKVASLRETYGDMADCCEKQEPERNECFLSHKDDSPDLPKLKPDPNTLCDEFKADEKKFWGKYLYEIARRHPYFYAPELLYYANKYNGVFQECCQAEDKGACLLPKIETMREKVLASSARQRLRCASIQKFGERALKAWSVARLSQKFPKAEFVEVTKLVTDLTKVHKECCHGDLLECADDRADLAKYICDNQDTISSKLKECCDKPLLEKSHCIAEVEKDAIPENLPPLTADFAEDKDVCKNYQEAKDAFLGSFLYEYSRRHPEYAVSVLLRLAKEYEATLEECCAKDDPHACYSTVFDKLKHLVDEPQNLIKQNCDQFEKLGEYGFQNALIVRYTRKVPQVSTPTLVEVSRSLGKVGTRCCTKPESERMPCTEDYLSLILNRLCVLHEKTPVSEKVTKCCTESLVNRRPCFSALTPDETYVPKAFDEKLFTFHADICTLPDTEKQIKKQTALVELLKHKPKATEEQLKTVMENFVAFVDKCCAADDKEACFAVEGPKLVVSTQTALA
Sequence of mouse serum albumin (P07724 25-608): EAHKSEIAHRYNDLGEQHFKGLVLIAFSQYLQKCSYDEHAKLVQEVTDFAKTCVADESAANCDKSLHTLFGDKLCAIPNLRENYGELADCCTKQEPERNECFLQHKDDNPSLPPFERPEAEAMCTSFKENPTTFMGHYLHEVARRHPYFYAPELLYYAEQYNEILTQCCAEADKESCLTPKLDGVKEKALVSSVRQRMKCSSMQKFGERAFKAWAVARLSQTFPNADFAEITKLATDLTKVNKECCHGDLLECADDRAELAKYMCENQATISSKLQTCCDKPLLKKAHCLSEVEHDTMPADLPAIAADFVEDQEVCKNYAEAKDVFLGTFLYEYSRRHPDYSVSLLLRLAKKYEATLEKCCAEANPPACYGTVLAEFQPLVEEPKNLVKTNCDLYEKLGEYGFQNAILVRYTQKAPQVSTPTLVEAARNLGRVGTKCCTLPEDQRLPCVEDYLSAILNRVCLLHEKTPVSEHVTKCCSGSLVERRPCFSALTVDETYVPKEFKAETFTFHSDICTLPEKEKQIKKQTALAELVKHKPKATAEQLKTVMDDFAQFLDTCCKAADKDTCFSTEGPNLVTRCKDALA

B1: DX-321 (peptide)
chain: AEGTGDRNMCKFSWIRSPAFCARADPEXK
modifications: disulfide cyclic, N-acetyl, C-amide, X = 6-aminohexanoic acid, fluorescein on Lys
With B1 the Kd (rat serum albumin) was 117 µM, the Kd (bovine serum albumin [1]) was > 200 µM and the Kd (rhesus serum albumin) was 82 µM. The Kd [2] was 84 µM, the Kd (mouse serum albumin) was > 200 µM and the Kd (bovine serum albumin [3]) was 21 µM. For the same binder, the Kd (pig serum albumin) was 21 µM, the Kd [4] was 0.9 µM and the Kd [5] was 0.9 µM. The Kd [6] was 84 µM.
